Test results reported in patent US20240174736A1 (STARMAB BIOLOGICS SUZHOU, published 2024).

How the values were obtained:
[1] = target: pneumolysin (PLY) recombinant protein (Streptococcus pneumoniae, UniProt Q04IN8 1-471)
[2] = target: T1, attenuated PLY mut recombinant protein (pneumolysin with alanine 146 deleted) (Streptococcus pneumoniae, UniProt Q04IN8 1-471); experiment: ELISA, PLYmut coated at 0.1 µg/well, antibody in 2-fold dilutions, HRP goat anti-human IgG
T1 construct: The change is a deletion of A146, not a substitution ('-' under new means deleted); Expressed in E. coli BL21 (DE3) plysS with a C-terminal His tag; also called PLYmut protein; PLY mut antigen; not shown: C-terminal His tag

| Binder | EC50 [1] | EC50 [2] |
| --- | --- | --- |
| humanized antibody 2E5H3L0 (antibody, human IgG1, kappa, V domains shown, also called 2E5H3L0 humanized antibody; hu2E5VH3CH/hu2E5VL0CL) VH: EVQLVESGGGLVQPGGSLKLSCAASGYTFGDNWMNWVRQASGKGLEWVGEIRLKSNNYATRYAESVKGRFTISRDDSKNTVYLQMNSLKTEDTAVYYCTRTQFITSVVAPFDFWGQGTTVTVSS VL: not shown | 0.0203 mg/L | 0.0162 mg/L |
| 2E5 mouse/human chimeric antibody (2E5HL) (antibody, human IgG1, kappa, V domains shown, also called 2E5HL human-mouse chimeric antibody; c2E5VHCH/c2E5VLCL) VH: EVKVEESGGGSVQPGGSMKLSCVASGYTFGDNWMNWVRQSPEKGLEWVAEIRLKSNNYATRYAESVKGRFTISRDDSKSSVYLQMNNLRTEDTGIYYCTRTQFITSVVAPFDFWGQGTTLTVSS VL: not shown | 0.0171 mg/L | 0.0158 mg/L |
